Experimental findings from US20240026019A1 (Innovent, published 2024) are described below.

The target in test [1] is T1, human TNFR2 overexpressed on CHO-S cells (CHOS-hTNFR2) (human, UniProt P20333 23-461).
T1 construct: also called hTNFR2 CHO-S; human TNFR2 molecule overexpressed on CHO-S cells
T1 sequence: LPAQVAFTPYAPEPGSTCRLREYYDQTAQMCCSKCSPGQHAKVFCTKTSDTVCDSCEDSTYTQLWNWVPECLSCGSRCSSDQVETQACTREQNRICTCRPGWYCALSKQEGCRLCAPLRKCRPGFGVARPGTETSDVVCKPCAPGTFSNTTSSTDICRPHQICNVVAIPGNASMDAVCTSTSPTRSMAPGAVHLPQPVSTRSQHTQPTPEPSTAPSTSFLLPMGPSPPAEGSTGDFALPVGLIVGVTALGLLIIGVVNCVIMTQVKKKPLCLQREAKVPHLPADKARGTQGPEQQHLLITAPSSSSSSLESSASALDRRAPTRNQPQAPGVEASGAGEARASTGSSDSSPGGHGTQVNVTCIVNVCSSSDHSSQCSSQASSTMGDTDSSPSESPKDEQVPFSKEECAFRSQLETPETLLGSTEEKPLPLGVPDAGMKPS
Nature of the test: flow cytometry on CHO-S cells overexpressing human TNFR2 (chimeric antibody 69B1 beside the humanized antibodies), MFI-FL2A; unit taken from the axis Conc log(nM). On the procedure:
(§1) In the study, the binding of the antibodies, after being diluted in a gradient, to a stable CHO-S strain line overexpressing human TNFR2 on the surface was assayed by using a flow cytometer.
(§2) CHOS-hTNFR2 cells were counted and diluted to 2×10⁶ cells/mL, and added to a U-bottom 96-well plate at 100 μL/well. The mixture was centrifuged at 300 g for 5 min, and the cell medium was removed. Samples (the humanized antibodies hz3C4.7, hz69B1.5, hz69B1.6, hz69B1.11 and hz69B1.20, the chimeric antibody 69B1, and the positive control antibody OPI) (the antibodies were subjected to a three-fold dilution in PBS from the maximum antibody concentration of 300 nM) were added to the U-plate, and the cells were resuspended at 100 μL/well and left to stand on ice for 30 min. The suspension was centrifuged at 400 g for 5 min, and the supernatant was removed. The cells were washed twice with PBS. The mixture was centrifuged at 300 g for 5 min, and PBS was removed. 100 μL of anti-human Fc PE-labeled secondary antibody (SoutherBiotech; 2040-09) (diluted at a 1:100 ratio in PBS) was added to each well and incubated on ice for 30 min in the dark. The mixture was centrifuged at 400 g for 5 min, and the supernatant was removed. The cells were washed 3 times with PBS. The cells were resuspended in 200 μL of 1×PBS and assayed by FACS.
(In flow cytometry, cells or beads pass a laser one at a time.)

Test [2] deals with T2, cynomolgus monkey TNFR2 overexpressed on CHO-S cells (CHOS-cTNFR2) (cynomolgus monkey, UniProt P20333 23-461 (human entry)).
T2 construct: also called cTNFR2 CHO-S
T2 chain: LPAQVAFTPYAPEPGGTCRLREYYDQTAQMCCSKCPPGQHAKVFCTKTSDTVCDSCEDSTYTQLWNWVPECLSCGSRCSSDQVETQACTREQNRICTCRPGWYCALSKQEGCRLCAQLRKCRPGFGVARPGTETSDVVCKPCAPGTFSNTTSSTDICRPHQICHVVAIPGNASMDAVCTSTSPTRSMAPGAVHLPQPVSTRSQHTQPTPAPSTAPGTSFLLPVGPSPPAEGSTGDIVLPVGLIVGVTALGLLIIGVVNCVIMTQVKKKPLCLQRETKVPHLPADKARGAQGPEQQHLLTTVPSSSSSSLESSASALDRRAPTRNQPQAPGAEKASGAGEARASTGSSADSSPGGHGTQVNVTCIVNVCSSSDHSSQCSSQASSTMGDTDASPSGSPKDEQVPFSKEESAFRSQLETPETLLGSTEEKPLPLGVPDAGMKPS
Nature of the test: flow cytometry on CHO-S cells overexpressing cynomolgus monkey TNFR2 (positive control), MFI-FL2-A; unit taken from the axis Conc log(nM). As for the experimental part:
(§3) In the study, the binding of the chimeric antibodies of the present invention, after being diluted in a gradient, to a stable CHO-S cell strain overexpressing human TNFR2 on the surface was assayed by using a flow cytometer. cDNAs encoding human TNFR2 (SEQ ID NO: 60) and cynomolgus monkey TNFR2 (SEQ ID NO: 61) were cloned into pCH01.0 vectors (Invitrogen), which were transfected into CHO-S cells (Invitrogen) to produce CHO-S cells overexpressing human TNFR2 (CHOS-hTNFR2) and CHO-S cells overexpressing cynomolgus monkey TNFR2 (CHOS-cTNFR2).
(§4) CHOS-hTNFR2 cells or CHOS-cTNFR2 cells were counted and diluted to 2×10⁶ cells/mL, and added to a U-bottom 96-well plate at 100 μL/well. The mixture was centrifuged at 300 g for 5 min, and the cell medium was removed. The dilutions of the samples (the chimeric antibodies 3C4, 69B1, and 72G8 and the positive control antibody OPI) (the antibodies were subjected to a three-fold serial dilution in PBS from the maximum antibody concentration of 300 nM) were added to the U-plate, and the cells were resuspended at 100 μL/well and left to stand on ice for 30 min. The suspension was centrifuged at 400 g for 5 min, and the supernatant was removed. The cells were washed twice with PBS. The mixture was centrifuged at 300 g for 5 min, and PBS was removed. […]

The target in test [3] is T1, human TNFR2 overexpressed on CHO-S …. Nature of the test: flow cytometry on CHO-S cells overexpressing human TNFR2 (positive control), MFI-FL2A; unit taken from the axis Conc log(nM). On the procedure: as §1, §2
Test [4] shares this target. Nature of the test: flow cytometry on CHO-S cells overexpressing human TNFR2 (positive control), MFI-FL2-A; unit taken from the axis Conc log(nM). As for the experimental part: as §3, §4

As a reminder, the EC50 is the concentration giving half of the maximal effect.

B1: chimeric antibody 69B1 (antibody, human IgG1, kappa, V domains shown)
VH: QIQLVQSGPELKKPGETVKISCKASGYTFTDYSMNWVKQAPGKGLKWMGWLNTETGEPIYADDFKGRFVFSLETSASTAYLEINNLNDEDTATYFCAREAIYYGTSYVLDYWGQGTSVTVSS
VL: DIVLTQSPASLAVSLGQRATISCRASESVEYYGTNFMQWYQQKPGQPPKLLIYSASNVESGVPARFSGSGSGTDFSLNIHPVEEDDIAVYFCQQSRKDPSTFGEGTNLEIKR
Molecule B1 registered a concentration giving a half-maximal response (EC50) in test [1] of 489 pM.

B2: positive control antibody OPI (humanized antibody SBT-002e in WO 2017083525) (antibody, V domains shown)
VH: QVTLKESGPALVKPTQTLTLTCTFSGFSLSTSGMGVGWIRQPPGKALEWLAHIWWDDDKFYNPSLKSRLTISKDTSKNQVVLTMTNMDPVDTATYYCARLTGTRYFDYWGQGTTVTVSS
VL: DVQMTQSPSSLSASVGDRVTITCKASQDINKFIAWYQQKPGKAPKLLIHYTSTLQPGIPSRFSGSGSGRDYTFTISSLQPEDIATYYCLQYGNLWTFGGGTKVEIK
notes: also called Benchmark OPI
Consider B2, for which the values for the EC50 in test [2], in test [3] and in test [4] were 432 pM, 486 pM and 2620 pM, respectively.
